The values below are quoted from earlier work in PMC3708895.

pKd: −log10 of the molar value.

For this series, the target named is T4 capsid (gp23) (Escherichia virus T4) (UniProt P04535).
Sequence of UniProt P04535 (P04535 66-521): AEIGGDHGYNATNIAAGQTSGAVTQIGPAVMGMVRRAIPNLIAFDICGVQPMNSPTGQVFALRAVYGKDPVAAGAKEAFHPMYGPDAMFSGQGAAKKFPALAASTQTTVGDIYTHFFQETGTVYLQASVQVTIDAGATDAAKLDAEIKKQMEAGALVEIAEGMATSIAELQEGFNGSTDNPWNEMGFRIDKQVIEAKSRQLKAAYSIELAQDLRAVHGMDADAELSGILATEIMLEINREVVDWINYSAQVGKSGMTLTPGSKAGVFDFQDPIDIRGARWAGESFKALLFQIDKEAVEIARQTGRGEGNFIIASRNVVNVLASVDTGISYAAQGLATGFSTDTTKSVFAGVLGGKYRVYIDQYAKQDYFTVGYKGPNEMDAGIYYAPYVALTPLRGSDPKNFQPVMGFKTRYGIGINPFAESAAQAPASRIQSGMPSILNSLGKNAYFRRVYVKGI

The term pKd denotes the negative decadic logarithm of the Kd, by convention in mol/L. In the case of Soc (from UniProt P03715), the pKd is 7.12.
